Test results: article PMC5357137

Key:
[1] = system: MuA transposase in cleaved-donor complex (CDC, WT transpososome) (bacteriophage Mu); assay: fluorescence anisotropy; conditions: Mg2+, CDC with 3'ddA Mu ends, Anisotropy: purified CDCs diluted in reaction buffer with MgCl2 (+/- DMSO; concentrations, salt and pH not in material), 6 nM Atto565 target DNA, 1 h, room …
[2] = system: MuA delta domain III (catalytic subunits of delta domain III CDC);SinMu chimera (non-catalytic subunits) (bacteriophage Mu;bacteriophage Mu; Sin recombinase (organism not stated)); assay: fluorescence anisotropy; conditions: Mg2+, DMSO; CDC with 3'ddA Mu ends; single G:G mismatch at center; Anisotropy: purified CDCs diluted in reaction buffer with MgCl2 (+/- DMSO; concentrations, salt and pH not in material), 6 nM Atto565 target DNA, 1 h, room …

Substance	Kd ([1]; DMSO) [nM]	Kd [2] [nM]	Kd ([1]; DMSO, Hill coefficient 2.6, single G:G mismatch at center) [nM]	Kd ([1]; no DMSO, Hill coefficient 3.3, single G:G mismatch at center) [nM]
target DNA, fully base paired, 35 bp	29	–	–	–
target DNA with central G:G mismatch, 35 bp	–	38	15	15
